We go through 10 molecules from publication PMC13438699 (Nature Communications, 2026).

The target of test [1] is T1, A/USSR/90/1977 (H1N1) HA (Influenza A virus A/USSR/90/1977 (H1N1), UniProt P03453, strain).
T1 construct: source: bought: Sino Biological
The experiment in a line: ELISA. The settings on record: one partner purified. (In general: ELISA stands for enzyme-linked immunosorbent assay.)

The target of test [2] is T2, A/Taiwan/01/1986 (H1N1) HA (Influenza A virus A/Taiwan/1/1986 (H1N1), UniProt F5CU03, strain).
T2 construct: source: bought: Sino Biological
The experiment in a line: ELISA. The settings on record: one partner purified.

The target in test [3] is A/Beijing/262/1995 (H1N1) HA (Influenza A virus A/Beijing/262/1995 …, UniProt B4UPF7, strain). The experiment in a line: ELISA. The settings on record: one partner purified.
In test [4] the target is T3, A/Solomon Islands/3/2006 (H1N1) HA (influenza A virus A/Solomon …). The experiment in a line: ELISA. Conditions: one partner purified.
The target of test [5] is T4, A/California/07/2009 (H1N1) HA (Influenza A virus A/California/07/2009 …, UniProt C3W5X2, strain).
T4 construct: source: bought: BEI Resources (NR-42635)
The experiment in a line: ELISA. Conditions: one partner purified.

The target in test [6] is T5, A/Michigan/45/2015 (H1N1) HA (Influenza A virus A/Michigan/45/2015 …, UniProt A0A1J0CXU0, strain). The test is described as follows: ELISA. Conditions: one partner purified.
In test [7] the target is T6, A/Japan/305/1957 (H2N2) HA (Influenza A virus A/Japan/305/1957 …, UniProt Q0A2X3, strain).
T6 construct: source: Sf9, baculovirus, purified from supernatant (Ni Sepharose Excel, SEC)
The experiment in a line: ELISA. Conditions: one partner purified.

Test [8] addresses T5, A/Michigan/45/2015 (H1N1) HA. The test is described as follows: BLI. The settings on record: both partners purified.
For test [9], the target named is T3, A/Solomon Islands/3/2006 (H1N1) HA. The test is described as follows: cryo-EM structure. The settings on record: both partners purified.
In test [10] the target is A/Texas/37/2024 (H5N1) HA (Influenza A virus A/Texas/37/2024 (H5N1), strain). The experiment in a line: BLI. Conditions: both partners purified.

Bounds are passed on as bounds.

B1: HB315 (IgG format) (antibody, V domains shown)
VH: EVQLLESGGGLAQPGGSLRLSCTASGFTFSNFAMNWVRQAPGKGLEWVSFINSGSGSTYYADSVKGRFTISRDNSENTLFLQMNSLRAEDTAVYYCAKDLGRAIFGLVIPEGAFDIWGQGTMVTVSS
VL: EIVMTQSPSSLSASVGDRVTITCRASQSINNHLNWYQQKPGKAPKLLIYAASSLQSGVPSRFSGSGSGTDFTLTISSLQPADFATYHCQQSYGVPLTFGQGTKVEIK
Regarding B1, the binding result in test [1], in [2], in test [3], in test [4], in [5] and in test [6] was “binds” in each case. Besides, in test [7], the “fold stronger binding activity than HB31 and HB34 (ELISA)” value was at least 4 fold.

B2: HB315 Fab (Fab, V domains shown)
VH: B1 VH
VL: B1 VL
For the molecule B2, the binding result in [8] and in [9] was “binds” each time.

B3: 047-09 4F04 Fab (Fab, V domains shown)
VH: EVQLVESGGGLVQPGGSLRLSCAASGFTFNTYNMNWVRQAPGKGLEWVSYISSSSLSRYYADSVKGRFTISRDNAKNSLFLQMNSLRAEDTAVYYCARGAQAGYSSFFPPTTFWGQGTLVTVSS
VL: EIVMTQSPATLSVSPGEGVTLSCRASQSVSSNLAWYQQKPGQAPRLLIYGASTRATGIPARFSGSGSGTEFTLTISSLQSEDFAVYYCQQYYNWPPLTFGGGTKVEIK
On to B3, for which, in [8], the binding result is “binds”.

B4: CR9114 Fab (Fab, V domains shown)
VH: QVQLVQSGAEVKKPGSSVKVSCKSSGGTSNNYAISWVRQAPGQGLDWMGGISPIFGSTAYAQKFQGRVTISADIFSNTAYMELNSLTSEDTAVYFCARHGNYYYYSGMDVWGQGTTVTVSS
VL: QSALTQPPAVSGTPGQRVTISCSGSDSNIGRRSVNWYQQFPGTAPKLLIYSNDQRPSVVPDRFSGSKSGTSASLAISGLQSEDEAEYYCAAWDDSLKGAVFGGGTQLTVL
notes: source: Expi293F, transient co-transfection, purified (CaptureSelect CH1-XL)
Consider B4, for which, in test [8], the binding result was “binds”.

B5: HB31 wild type (WT) Fab (Fab, V domains shown)
VH: EVQLLESGGGLVQPGGSLRLSCTVSGFTSSNYDMSWVRQAPGKGLEWVSGISGTGRDTYYADSVKGRFTISRDNSKNTLSLQMNSLRADDTAVYFCARDRPVLRYFDWQPYGLDVWGKGTTVTVSS
VL: QSALTQPPSASGSPGQSVTISCTGTSSDVGGYNYVSWYQQYPSKAPKLMIYEVSKRPSGVPDRFSGSKSGNTASLTVSGLQAEDEADYYCNSYAGSNLYVFGTGTKVTVL
notes: also called HB31 WT Fab; HB31 Fab; source: Expi293F, transiently co-transfected, purified (CaptureSelect CH1-XL)
B5: in test [10], the Kd was found to be 4.5 nM. This counts as single-digit nanomolar.

B6: HB31 (IgG format) (antibody, V domains shown)
VH: B5 VH
VL: B5 VL
notes: also called HB31 wild type; WT
As to B6, the binding result in test [1], in test [2], in test [4] and in test [5] was “binds” each time.

B7: HB34 (IgG format) (antibody, V domains shown)
VH: B5 VH
VL: QSALTQPASVSGSPGQSITISCTGTSSDVGSYNLVSWYQQHPGKAPKLMIYEGSQRPSGVSNRFSGSKSGNTASLTISGLQAEDEADYYCCSYASSTSYVFGTGTKVTVL
B7: the binding result in test [1], in [2], in [3], in [4], in test [5] and in test [6] was “binds” throughout.

B8: HB34 Fab (Fab, V domains shown)
VH: B5 VH
VL: B7 VL
Consider B8, for which the binding result in test [8] and in test [9] was “binds” in each case.

B9: HB31 wild type (WT) IgG (antibody, V domains shown)
VH: B5 VH
VL: B5 VL
notes: copies: 2 + 2
In turn, B9 yielded an equilibrium dissociation constant (Kd) in test [10] of 1.6 nM.

B10: HB31 Fab (Fab, V domains shown)
VH: B5 VH
VL: B5 VL
As for B10, the binding result in [8] and in test [9] was “binds” in each case.

The Kd is the constant that tells how readily two partners part at equilibrium.
